In general, Ki refers to the equilibrium dissociation constant of an inhibitor or competing ligand from its target.

The values that follow come from PMC8758671.

In assay [1] the target is porcine trypsin (porcine) (UniProt P00761).
The target is the same in assay [2]. Briefly: enzyme inhibition kinetics (double-reciprocal, Lineweaver-Burk plot); 0, 66.66 and 133.33 ηmol L^−1 rTcTI against 10 µg porcine trypsin, 15 min at 37 °C, then substrate BApNA at 0.04–0.42 (printed ηmol L^−1) in 240 µL; absorbance at 410 nm; quadruplicate; competitive inhibition.

UniProt P00761, sequence (P00761 9-231): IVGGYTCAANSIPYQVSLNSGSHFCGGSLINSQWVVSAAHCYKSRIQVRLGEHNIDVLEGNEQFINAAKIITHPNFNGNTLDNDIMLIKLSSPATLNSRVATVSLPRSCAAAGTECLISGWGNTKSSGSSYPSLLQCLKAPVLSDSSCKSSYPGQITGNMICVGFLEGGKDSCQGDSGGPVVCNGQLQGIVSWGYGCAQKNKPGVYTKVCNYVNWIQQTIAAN

In the case of “recombinant Theobroma cacao trypsin inhibitor (rTcTI) (natural protein)”, in assay [1], the residual trypsin activity (hydrolysis of BApNA, absorbance at 410 nm) with rTcTI rising from 0.5 to 1.2 μmol L^−1; 70% at the lower concentration was determined as 12%. In assay [2], the Ki came out at 408 nM.
